The values that follow come from article PMC3618186.

As a reminder, the Kd is the concentration at which binding is half-saturated. One may read the stoichiometry N as the number of molecules, sites or subunits per partner or assembly.

Where only a bound is given, the exact number is not on record here.

Test [1] concerns the target dynactin p150^Glued coiled-coil 1 (CC1) (R. norvegicus) (UniProt P28023). Kind of test: AUC; sedimentation equilibrium of the p150Glued fragments alone, 4°C, 1x PBS, 1 mM TCEP; monomer-dimer model (dimer to monomers).
Test [2] shares this target. Put plainly: SEC; equimolar IC-TcTex1-LC8 complex and p150Glued fragment (CC1, CC1A, CC1B), alone or in combination, analytical Superdex 200 10/300 GL; fractions checked by SDS-PAGE. In general terms: In gel filtration, larger molecules generally elute earlier.
Test [3] addresses dynactin p150^Glued coiled-coil 1B (CC1B), residues 381–530 (R. norvegicus) (UniProt P28023). The test is described as above.
Test [4] addresses p150Glued CC1 (Drosophila melanogaster) (UniProt P13496). Put plainly: ITC. Particulars: cited from earlier work.
Test [5] addresses dynactin p150^Glued coiled-coil 1 (CC1) (R. norvegicus) (UniProt P28023). Put plainly: AUC; sedimentation equilibrium of admixtures of p150Glued fragment and IC 1-124, 4°C, 1x PBS, 1 mM TCEP; model p150 dimer + 2 IC -> dimer-IC2, constant in M^2; CC1A: 10 μM + 10 μM.
Test [6] addresses dynactin p150^Glued coiled-coil 1A (CC1A), residues 204–348 (R. norvegicus) (UniProt P28023). The description is as above.
Test [7] addresses dynactin p150^Glued coiled-coil 1B (CC1B), residues 381–530 (R. norvegicus) (UniProt P28023). The test is described as above.
Test [8] has as its target dynactin p150^Glued coiled-coil 1 (CC1) (R. norvegicus) (UniProt P28023). Kind of test: AUC; sedimentation equilibrium, stoichiometric CC1 + IC 1-124, 4°C, 100 mM NaCl; model CC1 dimer + 2 IC, constant in M^2.
Test [9] shares this target. Kind of test: AUC; sedimentation equilibrium, CC1 + IC 1-124, 4°C, pH 7.0; model CC1 dimer + 2 IC, constant in M^2.
Test [10] has the same target. Put plainly: AUC; sedimentation equilibrium, stoichiometric CC1 + IC 1-124, 4°C, 500 mM NaCl; model CC1 dimer + 2 IC, constant in M^2.
The target is the same in test [11]. Kind of test: AUC; sedimentation equilibrium, stoichiometric CC1 + IC 1-124, 4°C, 250 mM NaCl; model CC1 dimer + 2 IC, constant in M^2.
For test [12] the target is unchanged. Put plainly: AUC; sedimentation equilibrium, CC1 + IC 1-124, 4°C, pH 8.0; model CC1 dimer + 2 IC, constant in M^2.
The target is the same in test [13]. Put plainly: AUC; sedimentation equilibrium, stoichiometric CC1 + IC 1-124, 4°C, 1000 mM NaCl; model CC1 dimer + 2 IC, constant in M^2.
For test [14] the target is unchanged. Kind of test: AUC; sedimentation equilibrium, CC1 + IC 1-124, 4°C, pH 9.0; model CC1 dimer + 2 IC, constant in M^2.
The target of test [15] is Cytoplasmic dynein 1 intermediate chain 2, isoform 2C, N-terminal fragment IC1-124 (UniProt Q62871). Put plainly: sedimentation equilibrium analytical ultracentrifugation (Beckman-Coulter XLI, absorbance optics). Conditions: 4 °C.
Chain of Cytoplasmic dynein 1 intermediate chain 2, isoform 2C, N-terminal fragment IC1-124 (Q62871 whole entry, the tested form may be a part, canonical isoform): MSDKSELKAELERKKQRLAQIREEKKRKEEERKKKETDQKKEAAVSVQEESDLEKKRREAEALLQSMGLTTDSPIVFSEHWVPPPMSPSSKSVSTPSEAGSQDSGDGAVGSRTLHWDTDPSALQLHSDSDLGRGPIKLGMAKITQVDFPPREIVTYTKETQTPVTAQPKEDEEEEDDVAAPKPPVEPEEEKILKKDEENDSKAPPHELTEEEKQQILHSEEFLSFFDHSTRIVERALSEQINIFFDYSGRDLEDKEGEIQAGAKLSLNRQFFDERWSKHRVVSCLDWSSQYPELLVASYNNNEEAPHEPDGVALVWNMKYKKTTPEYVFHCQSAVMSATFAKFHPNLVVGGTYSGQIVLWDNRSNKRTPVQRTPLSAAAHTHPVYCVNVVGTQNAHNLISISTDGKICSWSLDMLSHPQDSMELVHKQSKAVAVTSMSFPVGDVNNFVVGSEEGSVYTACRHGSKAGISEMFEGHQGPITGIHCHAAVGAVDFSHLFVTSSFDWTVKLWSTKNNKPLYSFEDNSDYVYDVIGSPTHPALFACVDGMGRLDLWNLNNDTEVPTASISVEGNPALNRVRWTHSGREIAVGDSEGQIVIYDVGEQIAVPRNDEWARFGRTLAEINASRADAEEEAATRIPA

Chain of p150Glued CC1 (Drosophila melanogaster) (P13496 221-509): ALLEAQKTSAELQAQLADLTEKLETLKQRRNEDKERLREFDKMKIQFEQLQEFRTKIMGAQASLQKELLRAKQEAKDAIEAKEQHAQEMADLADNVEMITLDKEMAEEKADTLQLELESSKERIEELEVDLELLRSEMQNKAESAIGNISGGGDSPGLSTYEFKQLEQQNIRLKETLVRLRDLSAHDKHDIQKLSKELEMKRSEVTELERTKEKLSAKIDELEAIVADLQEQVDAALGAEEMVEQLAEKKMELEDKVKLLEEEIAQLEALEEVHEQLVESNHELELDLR
Chain of dynein intermediate chain (Q24246 whole entry): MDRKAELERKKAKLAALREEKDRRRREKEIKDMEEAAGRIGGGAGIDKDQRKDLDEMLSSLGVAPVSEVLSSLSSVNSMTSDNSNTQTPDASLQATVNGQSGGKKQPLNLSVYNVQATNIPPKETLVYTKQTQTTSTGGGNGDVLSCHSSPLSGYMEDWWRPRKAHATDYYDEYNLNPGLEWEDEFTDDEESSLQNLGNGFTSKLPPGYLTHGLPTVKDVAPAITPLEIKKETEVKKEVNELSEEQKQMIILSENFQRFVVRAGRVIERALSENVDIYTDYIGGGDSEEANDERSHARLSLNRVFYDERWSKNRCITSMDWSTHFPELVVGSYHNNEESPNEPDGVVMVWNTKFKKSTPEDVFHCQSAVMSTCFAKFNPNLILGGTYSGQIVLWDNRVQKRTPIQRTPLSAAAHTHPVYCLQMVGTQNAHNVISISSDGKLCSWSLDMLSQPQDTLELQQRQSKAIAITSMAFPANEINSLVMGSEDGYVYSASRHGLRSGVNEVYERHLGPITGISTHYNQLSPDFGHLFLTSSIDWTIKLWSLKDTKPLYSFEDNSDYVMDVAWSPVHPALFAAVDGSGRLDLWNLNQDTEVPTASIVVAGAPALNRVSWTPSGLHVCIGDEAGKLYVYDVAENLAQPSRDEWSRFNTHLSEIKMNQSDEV

In test [1], “dynactin p150^Glued coiled-coil 1 (CC1) (from UniProt P28023 204-530) (domain or fragment)” returned a dissociation constant Kd of less than 0.001 µM and a stoichiometry N of 2.
For the substance “IC2B^1–158-TcTex1-LC8 complex (from UniProt Q9Z336 1-113; P63170 1-89)”, the change in elution volume of the IC complex in [2] amounted to 2.22 mL; in [3] it was 1.26 mL.
Regarding “dynein intermediate chain (from UniProt Q24246)”, the Kd in test [4] is 3.5 µM.
In the case of “dynein intermediate chain isoform 2C, residues 1–124 (domain or fragment)”, the overall dissociation constant, p150 dimer + 2 IC was less than 1e-15 M^2 in [5]; more than 1e-10 M^2 in [6]; more than 1e-15 M^2 in test [8]; less than 1e-13 M^2 in test [9]; 1e-10 M^2 in test [10]; 1e-12 M^2 in test [11]. Besides, the overall dissociation constant, p150 dimer + 2 IC in [12] was less than 1e-14 M^2; in test [13], 1e-08 M^2; in test [14] it was less than 1e-12 M^2. Also, in [5], the stoichiometry N (IC per CC1 dimer) was found to be 2. The overall dissociation constant on the scale of Figure S4B (scale not told, presumably -log10) in test [7] is 12. Besides, in test [7], the stoichiometry N (IC per CC1B dimer) turned out to be 2.
With “Dynactin subunit 1 (p150Glued) CC1 fragment”, the dissociation constant is ≤10^−13 M^2 in test [15] (pH 7.0, not stated (pH series 6.0, 7.0, 8.0, 9.0; buffer substances not named)); <10^−15 M^2 in test [15] (pH 7.4, 1x PBS: 137 mM NaCl, 2.7 mM KCl, 1x PBS (4.3 mM Na2HPO4, 1.47 mM KH2PO4, pH 7.4)); ≤10^−14 M^2 in test [15] (pH 8.0, not stated (pH series 6.0, 7.0, 8.0, 9.0; buffer substances not named)); ≤10^−12 M^2 in [15] (pH 9.0, not stated (pH series 6.0, 7.0, 8.0, 9.0; buffer substances not named)).
